Publication PMC4636054

Target: LlaBIII (UniProt A0A0M3KL05 1-1578)
Assay: X-ray crystallography

B1: LlaBIII 28 bp DNA (dsDNA)
DNA 1: GCTCTAGCTAATAGACTGAGCCGAGGTG
DNA 2: CACCTCGGCTCAGTCTATTAGCTAGAGC
B1: binds.
